Experimental findings from patent publication US20160017037A1 (GlaxoSmithKline, published 2016) are described below.

Where a chain is given by its changes, count along the chain named.

The chains are these.
T1: Recombinant baboon LAG-3 ECD-His6 (baboon, UniProt P18627 24-433 (human entry))
T1 construct: In-house generated
T1 chain: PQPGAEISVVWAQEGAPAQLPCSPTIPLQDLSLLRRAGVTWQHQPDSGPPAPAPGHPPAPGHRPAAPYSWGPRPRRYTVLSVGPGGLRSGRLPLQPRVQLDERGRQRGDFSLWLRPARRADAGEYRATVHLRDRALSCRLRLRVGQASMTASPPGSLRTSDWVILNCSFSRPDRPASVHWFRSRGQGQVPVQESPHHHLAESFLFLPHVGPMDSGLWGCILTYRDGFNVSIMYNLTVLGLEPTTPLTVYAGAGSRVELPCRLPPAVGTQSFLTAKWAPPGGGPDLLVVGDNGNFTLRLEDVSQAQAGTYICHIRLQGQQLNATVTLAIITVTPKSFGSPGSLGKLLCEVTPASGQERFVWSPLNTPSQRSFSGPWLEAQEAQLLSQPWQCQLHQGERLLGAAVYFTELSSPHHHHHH

T2: Recombinant cynomolgus macaque LAG-3 ECD-His6 (cynomolgus macaque, UniProt P18627 24-433 (human entry))
T2 construct: In-house generated; also called cyno LAG-3
T2 chain: T1 chain with Q188R, E193G, T243A, V288A, N293D, R357H

T3: Human LAG-3 on cells (human LAG-3 expressing EL4 cells; activated human CD3+ T cells) (human, UniProt P18627 23-525)
T3 construct: whole, on cells; also called LAG-3 positive T cells
T3 sequence (looked up): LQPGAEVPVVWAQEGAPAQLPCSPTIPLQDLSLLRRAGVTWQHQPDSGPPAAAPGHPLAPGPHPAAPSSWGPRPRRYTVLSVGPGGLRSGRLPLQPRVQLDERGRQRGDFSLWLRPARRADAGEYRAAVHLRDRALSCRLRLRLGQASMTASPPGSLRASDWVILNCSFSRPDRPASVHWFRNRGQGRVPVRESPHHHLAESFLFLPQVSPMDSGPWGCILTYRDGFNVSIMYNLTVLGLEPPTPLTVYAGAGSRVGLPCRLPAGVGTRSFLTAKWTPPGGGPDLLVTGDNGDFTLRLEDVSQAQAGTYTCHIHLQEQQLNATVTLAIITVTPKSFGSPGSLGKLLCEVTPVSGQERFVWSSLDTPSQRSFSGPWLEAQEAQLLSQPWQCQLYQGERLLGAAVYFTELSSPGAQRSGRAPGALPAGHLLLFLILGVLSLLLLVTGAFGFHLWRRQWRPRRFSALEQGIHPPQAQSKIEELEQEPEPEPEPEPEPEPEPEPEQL

B1: IMP731 (antibody, human IgG1, kappa)
heavy: not shown
light: DIVMTQSPSSLAVSVGQKVTMSCKSSQSLLNGSNQKNYLAWYQQKPGQSPKLLVYFASTRDSGVPDRFIGSGSGTDFTLTISSVQAEDLADYFCLQHFGTPPTFGGGTKLEIKRTVAAPSVFIFPPSDEQLKSGTASVVCLLNNFYPREAKVQWKVDNALQSGNSQESVTEQDSKDSTYSLSSTLTLSKADYEKHKVYACEVTHQGLSSPVTKSFNRGEC
notes: Chimeric (murine variable domains, human IgG1/kappa constant regions); also called A9H12; chimeric antibody IMP731
B2: H5L7BW (antibody, human IgG1, kappa)
heavy: not shown
light: DIQMTQSPSSLSASVGDRVTITCKSSQSLLNPSNQKNYLAWYQQKPGKAPKLLVYFASTRDSGVPSRFSGSGSGTDFTLTISSLQPEDFATYYCLQHFGTPPTFGQGTKLEIKRTVAAPSVFIFPPSDEQLKSGTASVVCLLNNFYPREAKVQWKVDNALQSGNSQESVTEQDSKDSTYSLSSTLTLSKADYEKHKVYACEVTHQGLSSPVTKSFNRGEC
modifications: afucosylated: no fucose on the core carbohydrate structure attached to Asn297
notes: Same plasmids as H5L7, expressed in the BioWa POTELLIGENT (FUT8 knock-out CHO) cell line; also called afucosylated antibody H5L7BW; afucosylated H5L7
B3: H5L7 (antibody, human IgG1, kappa)
heavy: not shown
light: B2 light
notes: Humanised IgG1/kappa of A9H12 (IMP731); also called fucosylated H5L7; non-ADCC enhanced variant H5L7

For one experiment, the target named is T1, Recombinant baboon LAG-3 ECD-His6. The experiment in a line: SPR Biacore T100 (orthologues at 37 C, human at 25 C). As to the method: (§1) Wild type fucosylated and afucosylated antibodies were compared for their ability to bind to recombinant human LAG-3 ECD with a C-terminal His6 (SEQ ID NO:51) using the Biacore™ T100 (GE Healthcare™). Protein A was immobilised on a CM5 chip by primary amine coupling. This surface was then used to capture the humanised antibodies. Recombinant human LAG-3 ECD-His6 was then passed over the captured antibodies at 32, 8, 2, 0.5 and 0.125 nM and regeneration was carried out using 50 mM NaOH. The binding curves were double referenced with buffer injection (i.e. 0 nM) and the data was fitted to the T100 analysis software using the 1:1 model. The run was carried out at 25° C., using HBS-EP as the running buffer.
(§2) Protein A was immobilised on a CM5 chip by primary amine coupling. This surface was then used to capture the humanised antibodies. In-house generated recombinant cynomolgus macaque and baboon LAG-3 ECD-His6 were then passed over the captured antibodies and regeneration was carried out using 50 mM NaOH. LAG-3 ECD-His6 was passed over at 16, 4, 1, 0.25 and 0.0625 nM. The binding curves were double referenced with buffer injection (i.e. 0 nM) and the data was fitted to the T100 analysis software using the 1:1 model. The run was carried out at 37° C. using HBS-EP as the running buffer.
In general terms: In SPR one partner is held on a chip, and binding of the other changes the refractive index at the surface.
Consider B1, for which the “fold improvement in affinity against human recombinant LAG-3 ECD-His6” value (“fold improvement in affinity” for short) is around 100 fold.
Still for that read-out and setting: next, B2: 10 fold; B3: 10 fold.

The target of another experiment is T2, Recombinant cynomolgus macaque LAG-3 …. The description is as above. As to the method: as §1, §2
As to B1, the “fold improvement in affinity” value is around 100 fold.
B2: the “fold improvement in affinity” value was found to be 10 fold.
Same read-out and setting: next, B3: 10 fold.

The target in the next experiment is T3, Human LAG-3 on cells (human LAG-3 …). The experiment in a line: flow cytometry (MFI), Alexa647-conjugated antibody titrated on human LAG-3 expressing EL4 cells; direct binding curve, half-maximal value labelled IC50 in the table under the graph; unit taken from the concentration axis. The protocol:
Human LAG-3 expressing EL4 cells were incubated with either IMP731, H5L7 or H5L7BW Alexa647-conjugated antibodies at varying concentrations of up to 50 μg/ml for 30 minutes at room temperature. Cells were washed with FACS buffer (PBS+0.5% BSA) to remove unbound antibody.
EL4 cells and CD3⁺ T cells were analysed by FACS using a Beckman Coulter FC 500 flow cytometer. FACS raw data were analysed using CXP Analysis software (Beckman Coulter). The data was initially plotted on a forward-scatter versus side-scatter plot and the population of cells of interest were gated. This gated population was then plotted as a histogram displaying fluorescence intensity and the mean fluorescence intensity (MFI) calculated. MFI values were then plotted in GraphPad Prism 5 software to generate dose response curves.
(In general: In flow cytometry, cells or beads pass a laser one at a time.)
The term IC50 denotes the concentration needed to halve the response being measured. Lower therefore signals higher potency. In turn, B1 gave an IC50 of 0.013 µg/mL.
B2 had an IC50 of 0.0169 µg/mL.
Still for that read-out and setting: next, B3: 0.0142 µg/mL.
